Data reported in PMC7952604, “Structural insights into phosphatidylethanolamine formation in bacterial membrane biogenesis” (Scientific Reports, 2021).
Values belong to the molecule of their own block, whether it stands above or below them. Square brackets hold non-standard residues; d marks the D form. Ends that are not written are not given here. * marks the point of attachment. Pyruvoyl = CC(=O)C(=O)*

B1: E. coli phosphatidylserine decarboxylase (PSD) α-subunit, from PSD_(1–287), apo (domain or fragment, Escherichia coli, UniProt P0A8K1 254-287, looked up)
chain: [Pyruvoyl]TVINLFAPGKVNLVEQLESLSVTKIGQPLAVST
notes: No removal of the His6 tag is described; also called α-chain; alpha chain; source: E. coli BL21(DE3), DDM-solubilised, purified (HisTrap, SEC) as auto-cleaved PSD_(1–287)
B2: E. coli PSD α-subunit, from PSD_(1–287), conjugated with 8:0/8:0 PE (domain or fragment, Escherichia coli, UniProt P0A8K1 254-287, looked up)
chain: [Pyruvoyl]TVINLFAPGKVNLVEQLESLSVTKIGQPLAVST
modifications: not fully specified (residue 1); also: 8:0/8:0 PE linked to Pvl-254 by reduced Schiff base
notes: α-chain of E. coli phosphatidylserine decarboxylase, residues 254-287 of the construct PSD_(1–287); also called 8PE-conjugated α-chain; source: E. coli BL21(DE3), purified PSD_(1–287), conjugated with 8PE by NaCNBH3-dependent reduction of the Schiff base
B3: E. coli PSD α-subunit, from PSD_(1–287), conjugated with 10:0/10:0 PE (domain or fragment, Escherichia coli, UniProt P0A8K1 254-287, looked up)
chain: [Pyruvoyl]TVINLFAPGKVNLVEQLESLSVTKIGQPLAVST
modifications: not fully specified (residue 1); also: 10:0/10:0 PE linked to Pvl-254 by reduced Schiff base
notes: α-chain of E. coli phosphatidylserine decarboxylase, residues 254-287 of the construct PSD_(1–287); also called 10PE-conjugated α-chain
B4: E. coli phosphatidylserine decarboxylase (PSD) β-subunit, from PSD_(1–287) (domain or fragment, Escherichia coli, UniProt P0A8K1 1-253, looked up)
chain: MLNSFKLSLQYILPKLWLTRLAGWGASKRAGWLTKLVIDLFVKYYKVDMKEAQKPDTASYRTFNEFFVRPLRDEVRPIDTDPNVLVMPADGVISQLGKIEEDKILQAKGHNYSLEALLAGNYLMADLFRNGTFVTTYLSPRDYHRVHMPCNGILREMIYVPGDLFSVNHLTAQNVPNLFARNERVICLFDTEFGPMAQILVGATIVGSIETVWAGTITPPREGIIKRWTWPAGENDGSVALLKGQEMGRFKLG
notes: Made as one proenzyme chain (residues 1-287 with a C-terminal His6 tag) that cuts itself; the β-chain is the N-terminal product; also called β-chain; beta chain; source: E. coli BL21(DE3), DDM-solubilised, purified (HisTrap, SEC) as auto-cleaved PSD_(1–287)
B5: 10PE-PSD: αβ-heterodimer of E. coli PSD_(1–287) with 10:0/10:0 PE linked to Pvl-254 (complex, Escherichia coli)
chain 1: B4 chain
chain 2: STVINLFAPGKVNLVEQLESLSVTKIGQPLAVST
modifications: 10:0/10:0 PE covalently linked to the pyruvoyl residue Pvl-254 (reduced Schiff base)
notes: β-chain of E. coli phosphatidylserine decarboxylase, residues 1-253; α-chain of E. coli phosphatidylserine decarboxylase, residues 254-287
B6: 8PE-PSD: αβ-heterodimer of E. coli PSD_(1–287) with 8:0/8:0 PE linked to Pvl-254 (complex, Escherichia coli)
chain 1: B4 chain
chain 2: B5 chain 2
modifications: 8:0/8:0 PE covalently linked to the pyruvoyl residue Pvl-254 (reduced Schiff base)
notes: β-chain of E. coli phosphatidylserine decarboxylase, residues 1-253; α-chain of E. coli phosphatidylserine decarboxylase, residues 254-287; source: E. coli BL21(DE3), purified PSD_(1–287), conjugated with 8PE by NaCNBH3-dependent reduction of the Schiff base
B7: E. coli PSD_(1–287) αβ-heterodimer, apo (complex, Escherichia coli)
chain 1: B4 chain
chain 2: B5 chain 2
modifications: pyruvoyl residue (Pvl-254) at the N-terminus, formed from Ser-254 on auto-cleavage
notes: β-chain of E. coli phosphatidylserine decarboxylase, residues 1-253; α-chain of E. coli phosphatidylserine decarboxylase, residues 254-287; The unit that pairs with itself into the (αβ)2 heterotetramer; also called Apo-PSD1; Apo-PSD2; source: E. coli BL21(DE3), DDM-solubilised, purified (HisTrap, SEC)

Key:
[1] = molecular target: T1, PSD1–322 (Escherichia coli, UniProt P0A8K1, H144N); experiment: Schiff base reduction with NaCNBH3, MALDI-TOF; format: binding; conditions: 1 mM lipid, 50 mM NaCNBH3, 37 °C, 15 h; covalent; active site Pvl-254
T1 construct: gene psd; full length (1-322), C-terminal His6 tag, auto-cleaved 253/254 with Ser254 turned to pyruvoyl, expressed in E. coli BL21(DE3), solubilised in DDM
T1 sequence (P0A8K1 1-253 H144N): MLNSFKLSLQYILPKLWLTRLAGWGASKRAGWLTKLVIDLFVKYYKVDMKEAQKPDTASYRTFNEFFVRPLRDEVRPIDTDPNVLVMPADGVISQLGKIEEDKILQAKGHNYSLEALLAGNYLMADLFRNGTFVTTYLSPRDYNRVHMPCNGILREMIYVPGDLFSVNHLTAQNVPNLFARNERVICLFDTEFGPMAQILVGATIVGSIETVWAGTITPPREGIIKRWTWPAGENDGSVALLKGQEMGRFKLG
T1 sequence (P0A8K1 254-322): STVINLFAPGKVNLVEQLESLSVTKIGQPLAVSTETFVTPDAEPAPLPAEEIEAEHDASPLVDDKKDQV

[2] = molecular target: T2, PSD1–322 (Escherichia coli, UniProt P0A8K1, H144A); experiment: Schiff base reduction with NaCNBH3, MALDI-TOF; format: binding; conditions: 1 mM lipid, 50 mM NaCNBH3, 37 °C, 15 h; covalent; active site Pvl-254
T2 construct: gene psd; full length (1-322), C-terminal His6 tag, auto-cleaved 253/254 with Ser254 turned to pyruvoyl, expressed in E. coli BL21(DE3), solubilised in DDM
T2 sequence (P0A8K1 254-322): as above
T2 sequence (P0A8K1 1-253 H144A): as the sequence (P0A8K1 1-253 H144N) above, with N144A counted along it

[3] = molecular target: T3, PSD1–287 (Escherichia coli, UniProt P0A8K1); experiment: X-ray structure ([…] Å); NaCNBH3 reduction, MALDI-TOF; format: binding; conditions: 1 mM lipid, 50 mM NaCNBH3, 37 °C, 14 h, pH 7.5; covalent; reduced Schiff base to Pvl-254
T3 construct: gene psd

[4] = molecular target: T3, PSD1–287; experiment: Schiff base reduction with NaCNBH3, MALDI-TOF; format: binding; conditions: 1 mM lipid, 50 mM NaCNBH3, 37 °C, 14 h, pH 7.5, covalent, decarboxylated
[5] = molecular target: B4; experiment: crystal structure; apo PSD_(1–287) in DDM; sitting drop vapor diffusion at 20 °C; two crystal forms, Apo-PSD1 (1.90 Å) and Apo-PSD2 (2.63 Å); conditions: both partners purified
[6] = molecular target: B4; experiment: crystal structure; PE-conjugated PSD_(1–287) in DDM; sitting drop vapor diffusion at 20 °C; 8PE-PSD (2.12 Å) and 10PE-PSD (2.70 Å); conditions: both partners purified
[7] = molecular target: the molecule itself; experiment: crystal structure; apo PSD_(1–287) in DDM; sitting drop vapor diffusion at 20 °C; two crystal forms, Apo-PSD1 (1.90 Å) and Apo-PSD2 (2.63 Å)
[8] = molecular target: the molecule itself; experiment: crystal structure; PE-conjugated PSD_(1–287) in DDM; sitting drop vapor diffusion at 20 °C; 8PE-PSD (2.12 Å) and 10PE-PSD (2.70 Å)

% conjugation [3]: 98%
Molecule: CCCCCCCC(=O)OC[C@H](COP(=O)(O)OCCN)OC(=O)CCCCCCC [8PE, 8:0/8:0 PE]
Schiff base reduction with NaCNBH3, MALDI-TOF [1]: these proteins were able to form an adduct with 8PE, albeit at a reduced efficiency
Schiff base reduction with NaCNBH3, MALDI-TOF [2]: these proteins were able to form an adduct with 8PE, albeit at a reduced efficiency

% conjugation ([4]; trapped as 10PE adduct of Pvl-254): 97%
Molecule: CCCCCCCCCC(=O)OC[C@H](COP(=O)(O)OC[C@H](N)C(=O)O)OC(=O)CCCCCCCCC [10PS, 10:0/10:0 PS]

% conjugation ([4]; trapped as 14PE adduct of Pvl-254): 94%
Molecule: CCCCCCCCCCCCCC(=O)OC[C@H](COP(=O)(O)OC[C@H](N)C(=O)O)OC(=O)CCCCCCCCCCCCC [14PS, 14:0/14:0 PS]

Molecule: B1
binding result [5]: binds

Molecule: B2
binding result [6]: binds

Molecule: B3
binding result [6]: binds

Molecule: B4
binding result [7]: binds

Molecule: B5
stoichiometry N [8]: 2 αβ-heterodimers

Molecule: B6
stoichiometry N [8]: 2 αβ-heterodimers

Molecule: B7
stoichiometry N [7]: 2 αβ-heterodimers
